{"source": "paper PMC13368180", "about": "“In silico design and validation of high-affinity RNA aptamers for SARS-CoV-2 comparable to neutralizing antibodies”", "binders": {"B1": {"name": "Ta (RBD-PB6-Ta) (structured_RNA)", "RNA": "GGCGACAUUUGUAAUUCCUGGACCGAUACUUCCGUCAGGACAGAGGUUGCCA"}, "B2": {"name": "TaC23G (structured_RNA)", "RNA": "B1 RNA with C23G"}, "B3": {"name": "TaG34A (structured_RNA)", "RNA": "B1 RNA with G34A"}, "B4": {"name": "TaC23U (structured_RNA)", "RNA": "B1 RNA with C23U"}, "B5": {"name": "TaG34C (structured_RNA)", "RNA": "B1 RNA with G34C"}, "B6": {"name": "TaG34U (structured_RNA)", "RNA": "B1 RNA with G34U"}, "B7": {"name": "TaC23A (structured_RNA)", "RNA": "B1 RNA with C23A"}}, "note": "Numbering of substitutions follows the chain as printed."}
{"biological_target": "SARS-CoV-2 spike RBD (SARS-CoV-2, UniProt P0DTC2 319-541)", "test": "EMSA", "conditions": "protein: commercial", "units": {"Kd": "µM"}}
{"binder": "B1", "Kd": 111}
{"binder": "B2", "Kd": 168}
{"binder": "B3", "Kd": "55.5 ± 4.1"}
{"binder": "B4", "Kd": "48.7 ± 2"}
{"binder": "B5", "Kd": "33.5 ± 1.6"}
{"binder": "B6", "Kd": "54.7 ± 2"}
{"binder": "B7", "Kd": "55.7 ± 9.8"}
{"biological_target": "SARS-CoV-2 spike RBD (SARS-CoV-2, UniProt P0DTC2 319-541)", "test": "EMSA", "conditions": "protein: commercial; hairpin"}
{"binder": "GGUCCUGGACCGAUACUUCCGUCAGGACCA (structured_RNA)", "note": "[Tc (RBD-PB6-Tc)]", "binding result": "no binding"}
